# The supplement of paper PMC10567573
# ± gives the standard deviation.
# Assay: protein stability index of a GFP-peptide fusion (GPS, HEK-293T) (PSI 1-6); higher = more stable
# [1] = treatment: DMSO, c terminus: a fixed tail appended
# [2] = treatment: MLN4924 1 uM, 8 h, c terminus: a fixed tail appended
# [3] = treatment: DMSO, c terminus: native
# [4] = treatment: MLN4924 1 uM, 8 h, c terminus: native
# 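Also: 24-mer peptide tiles fused after GFP, lentivirally expressed, FACS-sorted into six equal bins by GFP/DsRed ratio, decoded by Illumina sequencing, PSI is the read-weighted mean bin number.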
Sequence,protein stability index [1],protein stability index [2],protein stability index [3],protein stability index [4]
THLLMGLASGRIILILEGGYNLTS [HDAC6],2.89 ± 0.46,3.02 ± 0.58,–,–
TKLLSGSYDCTVKLWDPVDGSVVR [WDR88],3.1 ± 0.33,3.19 ± 0.26,–,–
TKRSSRNPVFQDSWDTESSGSDSG [FAM104A],5.3 ± 0.28,5.22 ± 0.055,–,–
TKWVDYSNKYGFGYQLSDHTVGVL [PLK2],2.19 ± 0.33,2.08 ± 0.19,–,–
TLALEALVQLRGRLTSQDWERVHL [ALG2],2.24 ± 0.27,2.32 ± 0.24,–,–
TLGGKAFHITNDEPIPFWTFLSRI [NSDHL],2.19 ± 0.096,2.28 ± 0.22,–,–
TLHGVVNESTVCLMSYERRQILHL [TENT5D],2.35 ± 0.54,2.44 ± 0.4,–,–
TLQHWPHIIRIGDLKPTGEIPKQV [DENND6A],2.3 ± 0.29,2.74 ± 0.24,–,–
TLRPDQQLHIFNTLRSHLIDKGML [CDS2],2.14 ± 0.28,2.24 ± 0.13,–,–
TLSPHQYHSVHGVGMVPEWSDNS [TBX5],–,–,4.01 ± 0.29,3.8 ± 0.14
TLVNFHLKRSIPQVSPVRRAPSRR [CPN1],2.88 ± 0.28,3.13 ± 0.23,–,–
TNEAACLLDNPLCADVLFILQDQE [RHOBTB1],3.66 ± 0.24,3.82 ± 0.24,–,–
TNNNIKQRLIKKVQEAVLDKWVND [GOLPH3],2.37 ± 0.4,2.36 ± 0.31,–,–
TNSTPLRAACFDGHLEVVRYLVGE [FEM1A],2.32 ± 0.18,2.4 ± 0.31,–,–
TNVRLQPAATWNLEEKRLTWRLPD [FCHO1],3.27 ± 0.32,3.34 ± 0.24,–,–
TPATPEDPAPLWGPPPAQGSPGDG [EMID1],5.3 ± 0.48,5.31 ± 0.22,–,–
TPFQSVPPTVSQTPVIAATPVPTI [BRD3],4.06 ± 0.24,3.94 ± 0.13,–,–
TQIIGEQNARLAELERKLREVMES [FBXO28],3.71 ± 0.22,3.68 ± 0.12,–,–
TREAVTEILGIEPDREKGFHLDVE [TSN],4.62 ± 0.063,4.64 ± 0.12,–,–
TRFTEEYQLFEELGKGAFSVVRRC [CAMK2A],2.63 ± 0.39,2.54 ± 0.26,–,–
TSDDNLLKNIELFDKLALRFHGRL [KCTD13],2.48 ± 0.2,2.46 ± 0.4,–,–
TSECPSDKDKSPESHKAKNESWIK [C10orf62],3.58 ± 0.65,4.18 ± 0.7,–,–

Sequence,protein stability index [1],protein stability index [2],protein stability index [3],protein stability index [4]
TSEGTLELQQRNPKAERLRWSPAQ [ZNF232],4.27 ± 0.19,4.25 ± 0.15,–,–
TSGVAAVQDWYHFHYVDILALLPA [SCNN1D],2.42 ± 0.44,2.35 ± 0.24,–,–
TSKNSSTQDPSQPNSTKNQSLPKA [LCOR],5.31 ± 0.16,5.44 ± 0.12,–,–
TSPVYRGSSSGPSSPARVSTTPR [MTUS2],–,–,4.45 ± 0.2,4.48 ± 0.13
TSSASVTTTSNASGRRTSDVRRP [KRT13],–,–,2.88 ± 0.77,3.58 ± 0.76
TTTVTAVTAEVDLFGDAFAASPGE [SNAP91],4.54 ± 0.13,4.59 ± 0.28,–,–
TVASMMHRQETVECLKKFNARRKL [CAMK2B],3.41 ± 0.4,3.74 ± 0.33,–,–
TVEQGCQILDSLSYMRNENVISEL [FBXO39],3.5 ± 0.43,3.41 ± 0.42,–,–
TYSKFQPQSPDFLDITNPKAVLEN [UFD1],3.92 ± 0.18,4.24 ± 0.076,–,–
VAACTKEIDTQGRHLAHSMLQRAI [C10orf62],2.86 ± 0.41,2.9 ± 0.14,–,–
VADGLCCVLTTPCLTQSTAAPAVR [SLA],2.5 ± 0.54,2.77 ± 0.2,–,–
VAELFCRRCRRCVCALCPVLGAHR [TRIM14],2.25 ± 0.1,2.49 ± 0.39,–,–
VAGEFSEPVTLETPAFMFRLDAST [FSD1],3.1 ± 0.27,3.16 ± 0.19,–,–
VAGVLPDIEQFFNIGDSSSGLIQT [SPNS1],3.16 ± 0.25,3.32 ± 0.43,–,–
VAIFGPPNTLYEGGYFKAHIKFPI [UBE2R2],3.24 ± 1,2.95 ± 0.97,–,–
VAQTSLEEFNVLEMEVMRRQLYAV [FATE1],2.31 ± 0.37,2.21 ± 0.44,–,–
VAVDSNLRVRELQRKVDGIQKAYD [CCDC89],3.85 ± 0.21,3.94 ± 0.39,–,–
VCALCPVLGAHRGHPVGLALEAAV [TRIM14],2.57 ± 0.34,2.37 ± 0.6,–,–
VCTDTDRWSLISLSNKNGKNVELK [TENT5C],3.46 ± 0.27,3.57 ± 0.17,–,–
VEAMYCYLRCIQSEVSFEGAYGNL [SMG5],3.13 ± 0.35,3.12 ± 0.63,–,–
VEMDIYTALKKWMFLQLVPSWNGS [GMCL1],2.65 ± 0.092,2.66 ± 0.65,–,–
VEWAKYIPAFCELPLDDQVALLRA [HNF4A],2.42 ± 0.64,2.44 ± 0.42,–,–
